FireProtDB (doi:10.1073/pnas.0910421107)

Conditions: Escherichia coli (strain K12), pH 7.6, Thermal, MOPS 25 mM, Potassium chloride 100 mM, whole UniProt chain shown

B1: Ribose import binding protein RbsB wild type, P02925 (protein)
chain: MNMKKLATLVSAVALSATVSANAMAKDTIALVVSTLNNPFFVSLKDGAQKEADKLGYNLVVLDSQNNPAKELANVQDLTVRGTKILLINPTDSDAVGNAVKMANQANIPVITLDRQATKGEVVSHIASDNVLGGKIAGDYIAKKAGEGAKVIELQGIAGTSAARERGEGFQQAVAAHKFNVLASQPADFDRIKGLNVMQNLLTAHPDVQAVFAQNDEMALGALRALQTAGKSDVMVVGFDGTPDGEKAVNDGKLAATIAQLPDQIGAKGVETADKVLKGEKVQAKYPVDLKLVVKQ
B1 showed a Tm (Activity) of 62.6 °C and a Tm (Quantitative cysteine reactivity) of 62.6 °C.
